Biological target: CRM1 (UniProt O14980)
Assay: co-immunoprecipitation, immunoblot
Conditions: reference: ALKBH5 WT, EGF-treated; sites Y71

binding against the reference: stronger
Substance: ALKBH5 (from UniProt Q6P6C2) ALKBH5 Y71F, EGF-treated

Source: article PMC10842222
